Legend:
[1] = biological target: Recombinant human his-tagged IGF R extracellular domain protein (human) (UniProt P08069); test: SPR, Ab captured via anti-huIgG Fc, pH 7.4
[2] = biological target: Recombinant human his-tagged IGF R extracellular domain protein (human) (UniProt P08069); test: SPR, Ab captured via anti-huIgG Fc, dissociation at pH 6

| Kd [1] | koff [1] | kon [1] | Kd [2] | koff [2] | kon [2] | Binder |
| --- | --- | --- | --- | --- | --- | --- |
| 0.456 nM | 4.85e-05 s⁻¹ | 106000 M⁻¹ s⁻¹ | 1.05 nM | 9.16e-05 s⁻¹ | 86800 M⁻¹ s⁻¹ | VRDN-02100 (antibody, human IgG1, kappa, V domains shown) VH: QVQLQESGPGLVKPSETLSLTCTVSGYSITGGYLWNWIRQPPGKGLEWIGYISYDGTNNYKPSLKDRVTISRDTSKNQFSLKLSSVTAADTAVYYCARYGRVFFDYWGQGTLVTVSS VL: DIVMTQSPLSLPVTPGEPASISCRSSQSIVHSNGNTYLQWYLQKPGQSPQLLIYKVSNRLYGVPDRFSGSGSGTDFTLKISRVEAEDVGVYYCFQGSHVPWTFGQGTKVEIKR |
| 0.495 nM | 5.1e-05 s⁻¹ | 103000 M⁻¹ s⁻¹ | 1.2 nM | 0.000115 s⁻¹ | 96000 M⁻¹ s⁻¹ | VRDN-02001 (antibody, V domains shown) VH: QVQLQESGPGLVKPSETLSLTCTVSHYSITGGYLWNWIRQPPGKGLEWIGYISYDGTNNYKPSLKDRVTISRDTSKNQFSLKLSSVTAADTAVYYCARYGRVFFDYWGQGTLVTVSS VL: DIVMTQSPLSLPVTPGEPASISCRSSQSIVHSNGNTYLQWYLQKPGQSPQLLIYKVSNRLYGVPDRFSGSGSGTDFTLKISRVEAEDVGVYYCFQGSHVPWTFGQGTKVEIK |
| 0.449 nM | 5.06e-05 s⁻¹ | 113000 M⁻¹ s⁻¹ | 0.793 nM | 7.99e-05 s⁻¹ | 101000 M⁻¹ s⁻¹ | VRDN-02024 (antibody, V domains shown) VH: QVQLQESGPGLVKPSETLSLTCTVSGYSITGGYLWNWIRQPPGKGLEWIGYISYDGTNNYKPSLKDRVTISRDTSKNQFSLKLSSVTAADTAVYYCARYGRHFFDYWGQGTLVTVSS VL: DIVMTQSPLSLPVTPGEPASISCRSSQSIVHSNGNTYLQWYLQKPGQSPQLLIYKVSNRLYGVPDRFSGSGSGTDFTLKISRVEAEDVGVYYCFQGSHVPWTFGQGTKVEIK |
| 8.23 nM | 0.000775 s⁻¹ | 94100 M⁻¹ s⁻¹ | – | – | – | VRDN-02022 (antibody, V domains shown) VH: QVQLQESGPGLVKPSETLSLTCTVSGYSITGGYLWNWIRQPPGKGLEWIGYISYDGTNNYKPSLKDRVTISRDTSKNQFSLKLSSVTAADTAVYYCARYHRVFFDYWGQGTLVTVSS VL: DIVMTQSPLSLPVTPGEPASISCRSSQSIVHSNGNTYLQWYLQKPGQSPQLLIYKVSNRLYGVPDRFSGSGSGTDFTLKISRVEAEDVGVYYCFQGSHVPWTFGQGTKVEIK |
| 4.4 nM | 0.00187 s⁻¹ | 426000 M⁻¹ s⁻¹ | 1.23 nM | 8.97e-05 s⁻¹ | 72700 M⁻¹ s⁻¹ | VRDN-02023 (antibody, V domains shown) VH: QVQLQESGPGLVKPSETLSLTCTVSGYSITGGYLWNWIRQPPGKGLEWIGYISYDGTNNYKPSLKDRVTISRDTSKNQFSLKLSSVTAADTAVYYCARYGHVFFDYWGQGTLVTVSS VL: DIVMTQSPLSLPVTPGEPASISCRSSQSIVHSNGNTYLQWYLQKPGQSPQLLIYKVSNRLYGVPDRFSGSGSGTDFTLKISRVEAEDVGVYYCFQGSHVPWTFGQGTKVEIK |
| – | – | – | 0.228 nM | 4.43e-05 s⁻¹ | 194000 M⁻¹ s⁻¹ | VRDN-02059 (antibody, V domains shown) VH: QVQLQESGPGLVKPSETLSLTCTVSGYSITGGYLWNWIRQPPGKGLEWIGYIHYDGTNNYKPSLKDRVTISRDTSKNQFSLKLSSVTAADTAVYYCARYGRVFFDYWGQGTLVTVSS VL: DIVMTQSPLSLPVTPGEPASISCRSHQSIVHSNGNTYLQWYLQKPGQSPQLLIYKVSNRLYGVPDRFSGSGSGTDFTLKISRVEAEDVGVYYCFQGSHVPWTFGQGTKVEIK |
| 0.549 nM | 5.53e-05 s⁻¹ | 101000 M⁻¹ s⁻¹ | 1.18 nM | 0.000101 s⁻¹ | 85800 M⁻¹ s⁻¹ | VRDN-02019 (antibody, V domains shown) VH: QVQLQESGPGLVKPSETLSLTCTVSGYSITGGYLWNWIRQPPGKGLEWIGYISYDGTHNYKPSLKDRVTISRDTSKNQFSLKLSSVTAADTAVYYCARYGRVFFDYWGQGTLVTVSS VL: DIVMTQSPLSLPVTPGEPASISCRSSQSIVHSNGNTYLQWYLQKPGQSPQLLIYKVSNRLYGVPDRFSGSGSGTDFTLKISRVEAEDVGVYYCFQGSHVPWTFGQGTKVEIK |
| 0.868 nM | 5.84e-05 s⁻¹ | 67300 M⁻¹ s⁻¹ | 1.38 nM | 0.000137 s⁻¹ | 99200 M⁻¹ s⁻¹ | VRDN-02021 (antibody, V domains shown) VH: QVQLQESGPGLVKPSETLSLTCTVSGYSITGGYLWNWIRQPPGKGLEWIGYISYDGTNNYKPSLKDRVTISRDTSKNQFSLKLSSVTAADTAVYYCARHGRVFFDYWGQGTLVTVSS VL: DIVMTQSPLSLPVTPGEPASISCRSSQSIVHSNGNTYLQWYLQKPGQSPQLLIYKVSNRLYGVPDRFSGSGSGTDFTLKISRVEAEDVGVYYCFQGSHVPWTFGQGTKVEIK |
| 0.346 nM | 3.39e-05 s⁻¹ | 98000 M⁻¹ s⁻¹ | 1.31 nM | 0.000111 s⁻¹ | 84300 M⁻¹ s⁻¹ | VRDN-02016 (antibody, V domains shown) VH: QVQLQESGPGLVKPSETLSLTCTVSGYSITGGYLWNWIRQPPGKGLEWIGYISYHGTNNYKPSLKDRVTISRDTSKNQFSLKLSSVTAADTAVYYCARYGRVFFDYWGQGTLVTVSS VL: DIVMTQSPLSLPVTPGEPASISCRSSQSIVHSNGNTYLQWYLQKPGQSPQLLIYKVSNRLYGVPDRFSGSGSGTDFTLKISRVEAEDVGVYYCFQGSHVPWTFGQGTKVEIK |
| 0.992 nM | 0.000104 s⁻¹ | 105000 M⁻¹ s⁻¹ | 1.11 nM | 9.22e-05 s⁻¹ | 83000 M⁻¹ s⁻¹ | VRDN-02002 (antibody, V domains shown) VH: QVQLQESGPGLVKPSETLSLTCTVSGHSITGGYLWNWIRQPPGKGLEWIGYISYDGTNNYKPSLKDRVTISRDTSKNQFSLKLSSVTAADTAVYYCARYGRVFFDYWGQGTLVTVSS VL: DIVMTQSPLSLPVTPGEPASISCRSSQSIVHSNGNTYLQWYLQKPGQSPQLLIYKVSNRLYGVPDRFSGSGSGTDFTLKISRVEAEDVGVYYCFQGSHVPWTFGQGTKVEIK |
| 6.73 nM | 0.000957 s⁻¹ | 142000 M⁻¹ s⁻¹ | 2.85 nM | 0.000121 s⁻¹ | 42600 M⁻¹ s⁻¹ | VRDN-02027 (antibody, V domains shown) VH: QVQLQESGPGLVKPSETLSLTCTVSGYSITGGYLWNWIRQPPGKGLEWIGYISYDGTNNYKPSLKDRVTISRDTSKNQFSLKLSSVTAADTAVYYCARYGRVFFHYWGQGTLVTVSS VL: DIVMTQSPLSLPVTPGEPASISCRSSQSIVHSNGNTYLQWYLQKPGQSPQLLIYKVSNRLYGVPDRFSGSGSGTDFTLKISRVEAEDVGVYYCFQGSHVPWTFGQGTKVEIK |
| 1.22 nM | 0.000118 s⁻¹ | 97000 M⁻¹ s⁻¹ | 1.14 nM | 0.00011 s⁻¹ | 96000 M⁻¹ s⁻¹ | VRDN-02017 (antibody, V domains shown) VH: QVQLQESGPGLVKPSETLSLTCTVSGYSITGGYLWNWIRQPPGKGLEWIGYISYDHTNNYKPSLKDRVTISRDTSKNQFSLKLSSVTAADTAVYYCARYGRVFFDYWGQGTLVTVSS VL: DIVMTQSPLSLPVTPGEPASISCRSSQSIVHSNGNTYLQWYLQKPGQSPQLLIYKVSNRLYGVPDRFSGSGSGTDFTLKISRVEAEDVGVYYCFQGSHVPWTFGQGTKVEIK |
| 0.544 nM | 5.16e-05 s⁻¹ | 94800 M⁻¹ s⁻¹ | 1.03 nM | 9.56e-05 s⁻¹ | 93200 M⁻¹ s⁻¹ | VRDN-02020 (antibody, V domains shown) VH: QVQLQESGPGLVKPSETLSLTCTVSGYSITGGYLWNWIRQPPGKGLEWIGYISYDGTNHYKPSLKDRVTISRDTSKNQFSLKLSSVTAADTAVYYCARYGRVFFDYWGQGTLVTVSS VL: DIVMTQSPLSLPVTPGEPASISCRSSQSIVHSNGNTYLQWYLQKPGQSPQLLIYKVSNRLYGVPDRFSGSGSGTDFTLKISRVEAEDVGVYYCFQGSHVPWTFGQGTKVEIK |
| 0.525 nM | 5.4e-05 s⁻¹ | 103000 M⁻¹ s⁻¹ | 1.11 nM | 0.000107 s⁻¹ | 97000 M⁻¹ s⁻¹ | VRDN-02028 (antibody, V domains shown) VH: QVQLQESGPGLVKPSETLSLTCTVSGYSITGGYLWNWIRQPPGKGLEWIGYISYDGTNNYKPSLKDRVTISRDTSKNQFSLKLSSVTAADTAVYYCARYGRVFFDHWGQGTLVTVSS VL: DIVMTQSPLSLPVTPGEPASISCRSSQSIVHSNGNTYLQWYLQKPGQSPQLLIYKVSNRLYGVPDRFSGSGSGTDFTLKISRVEAEDVGVYYCFQGSHVPWTFGQGTKVEIK |
| 2.4 nM | 9.99e-05 s⁻¹ | 41500 M⁻¹ s⁻¹ | 1.64 nM | 6.71e-05 s⁻¹ | 40800 M⁻¹ s⁻¹ | VRDN-02026 (antibody, V domains shown) VH: QVQLQESGPGLVKPSETLSLTCTVSGYSITGGYLWNWIRQPPGKGLEWIGYISYDGTNNYKPSLKDRVTISRDTSKNQFSLKLSSVTAADTAVYYCARYGRVFHDYWGQGTLVTVSS VL: DIVMTQSPLSLPVTPGEPASISCRSSQSIVHSNGNTYLQWYLQKPGQSPQLLIYKVSNRLYGVPDRFSGSGSGTDFTLKISRVEAEDVGVYYCFQGSHVPWTFGQGTKVEIK |
| 2.08 nM | 0.000141 s⁻¹ | 68000 M⁻¹ s⁻¹ | 1.51 nM | 9.5e-05 s⁻¹ | 63000 M⁻¹ s⁻¹ | VRDN-02025 (antibody, V domains shown) VH: QVQLQESGPGLVKPSETLSLTCTVSGYSITGGYLWNWIRQPPGKGLEWIGYISYDGTNNYKPSLKDRVTISRDTSKNQFSLKLSSVTAADTAVYYCARYGRVHFDYWGQGTLVTVSS VL: DIVMTQSPLSLPVTPGEPASISCRSSQSIVHSNGNTYLQWYLQKPGQSPQLLIYKVSNRLYGVPDRFSGSGSGTDFTLKISRVEAEDVGVYYCFQGSHVPWTFGQGTKVEIK |
| 0.734 nM | 7.79e-05 s⁻¹ | 106000 M⁻¹ s⁻¹ | 1.26 nM | 0.000108 s⁻¹ | 85400 M⁻¹ s⁻¹ | VRDN-02018 (antibody, V domains shown) VH: QVQLQESGPGLVKPSETLSLTCTVSGYSITGGYLWNWIRQPPGKGLEWIGYISYDGHNNYKPSLKDRVTISRDTSKNQFSLKLSSVTAADTAVYYCARYGRVFFDYWGQGTLVTVSS VL: DIVMTQSPLSLPVTPGEPASISCRSSQSIVHSNGNTYLQWYLQKPGQSPQLLIYKVSNRLYGVPDRFSGSGSGTDFTLKISRVEAEDVGVYYCFQGSHVPWTFGQGTKVEIK |

Source: patent US20240360227A1
